According to US20070280945A1 (Regeneron, published 2007):
Positions count from the first letter of the chain named. Each block holds one molecule with its values, some of them ahead of it.

Tests used:
[1] = biological target: hIL-6R-hFc (human) (UniProt P08887); test: blocking ELISA: 100 pM hIL-6R-hFc premixed with varied antibody, free hIL-6R-hFc captured on hIL-6-coated plate
[2] = biological target: Recombinant monkey monomeric IL-6R protein (Macaca fascicularis, extracellular domain) (Macaca fascicularis); test: SPR (BIAcore), captured antibody, monomeric IL-6R 1.25-40 nM injected
[3] = biological target: recombinant hIL-6R protein, monomeric form (human) (UniProt P08887); test: as above
[4] = biological target: hIL-6R on hIL-6-responsive human cells (XG-1 myeloma line, HepG2 hepatoma line) (human) (UniProt P08887); test: cell-based or functional assay
[5] = biological target: recombinant hIL-6R protein, monomeric form (human) (UniProt P08887); test: SPR (BIAcore), captured antibody, monomeric hIL-6R
[6] = biological target: recombinant hIL-6R protein, monomeric form (human) (UniProt P08887); test: Kinexa solution-phase competition immunoassay, monomeric hIL-6R
[7] = biological target: T1, hIL-6R-hFc (human, UniProt P08887 20-358); test: competition ELISA: antibody premixed with serial dilutions of hIL-6R-hFc, free antibody detected on hIL-6R-hFc-coated plate
T1 construct: also called dimeric hIL-6R; Dimer; not shown: human Fc (hFc)
T1 sequence: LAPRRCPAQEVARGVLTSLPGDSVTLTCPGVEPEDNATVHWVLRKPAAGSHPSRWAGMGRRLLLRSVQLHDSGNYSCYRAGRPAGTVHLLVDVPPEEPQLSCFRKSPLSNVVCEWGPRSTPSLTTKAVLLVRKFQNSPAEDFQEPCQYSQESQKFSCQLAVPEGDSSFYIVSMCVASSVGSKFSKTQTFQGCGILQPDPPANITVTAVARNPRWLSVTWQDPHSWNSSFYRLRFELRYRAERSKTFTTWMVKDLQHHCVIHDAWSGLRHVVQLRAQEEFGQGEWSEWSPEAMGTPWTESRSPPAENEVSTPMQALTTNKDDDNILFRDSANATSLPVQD

[8] = biological target: T1, hIL-6R-hFc; test: SPR (BIAcore), captured antibody, dimeric hIL-6R
[9] = biological target: T2, recombinant hIL-6R protein, monomeric form (human, UniProt P08887 20-358); test: SPR (BIAcore), captured antibody, monomeric hIL-6R
T2 construct: also called monomeric hIL-6R; Human IL6R
T2 sequence: T1 sequence

[10] = biological target: T2, recombinant hIL-6R protein, monomeric …; test: Kinexa solution-phase competition immunoassay, monomeric hIL-6R
[11] = biological target: T2, recombinant hIL-6R protein, monomeric …; test: SPR (BIAcore), antibody captured on anti-mouse IgG surface, monomeric hIL-6R
[12] = biological target: T2, recombinant hIL-6R protein, monomeric …; test: SPR (BIAcore), captured mouse-IgG antibody, monomeric hIL-6R 1.56-12.5 nM
[13] = biological target: T3, hIL-6R recombinant protein (plate-coated, Example 5) (human, UniProt P08887 20-358, limits assumed); test: SPR (BIAcore) competition on hIL-6R; competitor: control antibody
T3 construct: also called antigen
T3 sequence: T1 sequence

[14] = biological target: T2, recombinant hIL-6R protein, monomeric …; test: SPR (BIAcore), antibody captured on goat anti-mouse Fc, monomeric IL-6R 1.25-40 nM injected
[15] = biological target: T4, Recombinant monkey monomeric IL-6R protein (Macaca fascicularis, extracellular domain) (Macaca fascicularis, UniProt P08887 21-330 (human entry)); test: as above
T4 construct: also called Monkey IL6R; monkey IL-6R
T4 chain: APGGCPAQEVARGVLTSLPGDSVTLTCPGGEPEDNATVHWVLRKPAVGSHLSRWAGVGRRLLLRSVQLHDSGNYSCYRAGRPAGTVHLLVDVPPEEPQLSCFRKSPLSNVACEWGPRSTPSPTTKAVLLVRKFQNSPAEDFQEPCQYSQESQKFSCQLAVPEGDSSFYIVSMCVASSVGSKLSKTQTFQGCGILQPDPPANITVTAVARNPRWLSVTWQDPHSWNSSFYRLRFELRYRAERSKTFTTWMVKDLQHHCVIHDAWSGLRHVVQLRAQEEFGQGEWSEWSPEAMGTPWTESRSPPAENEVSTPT

[16] = biological target: T5, hIL-6R on hIL-6-responsive human cells (XG-1 myeloma line, HepG2 hepatoma line) (human, UniProt P08887 20-468); test: cell-based or functional assay
T5 sequence (looked up): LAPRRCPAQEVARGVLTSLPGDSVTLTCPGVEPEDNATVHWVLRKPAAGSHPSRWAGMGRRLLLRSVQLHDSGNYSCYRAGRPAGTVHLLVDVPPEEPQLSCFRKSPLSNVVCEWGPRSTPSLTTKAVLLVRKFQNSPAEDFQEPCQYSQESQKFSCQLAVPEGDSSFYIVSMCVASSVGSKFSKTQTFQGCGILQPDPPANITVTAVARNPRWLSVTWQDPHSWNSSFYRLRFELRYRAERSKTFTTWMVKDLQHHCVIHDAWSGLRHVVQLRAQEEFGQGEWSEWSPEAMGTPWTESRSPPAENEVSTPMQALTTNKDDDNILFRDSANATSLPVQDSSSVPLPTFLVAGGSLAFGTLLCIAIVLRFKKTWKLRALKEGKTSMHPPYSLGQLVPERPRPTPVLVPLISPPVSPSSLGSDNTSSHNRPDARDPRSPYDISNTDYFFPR

[17] = biological target: T1, hIL-6R-hFc; test: SPR (BIAcore): hIL-6R-hFc captured, antibody injected, then 50 nM hIL-6; percent reduction in hIL-6 binding
[18] = biological target: T3, hIL-6R recombinant protein …; test: competition ELISA on hIL-6R-coated plate presaturated with competitor control antibody; test antibody 50 ng/ml
[19] = biological target: T4, Recombinant monkey monomeric IL-6R …; test: SPR (BIAcore); reference: binding to human IL-6R; end of range tied to this antibody by Table 4 (0.569 against 0.377 nM)
[20] = biological target: T1, hIL-6R-hFc; test: blocking ELISA: 100 pM hIL-6R-hFc premixed with varied antibody, free hIL-6R-hFc captured on hIL-6-coated plate
[21] = biological target: T1, hIL-6R-hFc; test: SPR (BIAcore), antibody captured on anti-mouse IgG surface, dimeric hIL-6R
[22] = biological target: T5, hIL-6R on hIL-6-responsive human cells …; test: cell-based or functional assay; remark: listed apart in the source
[23] = biological target: T2, recombinant hIL-6R protein, monomeric …; test: SPR (BIAcore), antibody captured on goat anti-human Fc, monomeric hIL-6R 1.56-12.5 nM
[24] = biological target: T2, recombinant hIL-6R protein, monomeric …; test: SPR (BIAcore), antibody captured on goat anti-human Fc, monomeric hIL-6R 1.56-12.5 nM; modhIgG4 isotype
[25] = biological target: T4, Recombinant monkey monomeric IL-6R …; test: SPR (BIAcore); reference: binding to human IL-6R; end of range tied to this antibody by Table 4 (0.143 against 0.051 nM)
[26] = biological target: T2, recombinant hIL-6R protein, monomeric …; test: SPR (BIAcore), captured mouse-IgG antibody, monomeric hIL-6R 1.56-12.5 nM; mIgG2a isotype

B1: 248982-13-1-E5 (antibody, V domains shown)
VH: QVQLVQSGGDLVQPGRSLRLSCAASGFTFDDYAMHWVRQTPGKGLEWVSGISWNSGAIGYADSVKGRFTISRDNAKNSLYLQMNSLRAEDTALYYCTKEEVGATVDYFYFYGMDVWGQGTTVTVSS
VL: EIVMTQSPATLSLSPGERATLSCWASQSVSNYLAWYQQKPGQAPRLLIYDASNRATGIPARFSGSGSGTDFTLTISSLEPEDFAVYYCQQRSNWPTFGQGTKVEIK
IC50 [7]: 360 pM | Kd [8]: 785 pM | Kd [9]: 987 pM

B2: VQ8A9-6 (antibody, V domains shown)
VH: EVQLVESGGNLVQPGRSLRLSCAASGFIFDDYAMHWVRQAPGKGLEWVSGISWNSGSIGYADSVKGRFTISRDNAKNSLYLQMNSLRAEDTALYYCAKDGGSSWLPFVYYYGMDVWGQGTTVTVSS
VL: EIVMTQSPATLSVSPGERATLSCRASQSISSNFAWYQQKPGQAPRLLIYGASTRATGIPARFSGSGSGTDFTLTISSLQSEDFAVYYCQQYSSWPPYTFGQGTKLEIK
notes: Human variable regions with mouse constant region (hybridoma-derived chimeric antibody); also called VQ8A9-6 mIgG1
Kd [10]: 120 pM | Kd [11]: 222 pM | IC50 [7]: 4 pM | Kd [12]: 222 pM | koff [12]: 0.000221 s⁻¹ | kon [12]: 995000 M⁻¹ s⁻¹ | % reduction of binding by control antibody [13]: 26% | Kd [14]: 377 pM | koff [14]: 0.000276 s⁻¹ | kon [14]: 732000 M⁻¹ s⁻¹ | Kd [15]: 569 pM | koff [15]: 0.000416 s⁻¹ | kon [15]: 731000 M⁻¹ s⁻¹ | HepG2/STAT3 luciferase assay IC50 [16]: 97 pM | hIL6/hIL6R Binding Inhibition (%) [17]: 68% | % reduction of binding by control antibody [18]: 3% | fold difference of KD, monkey against human receptor [19]: 1.5 fold | IC50 [20]: 390 pM | Kd [21]: 101 pM | HepG2/Stat3 Luciferase activity IC50 [22]: 97 pM | XG-1 cell proliferation Inhibition IC50 [22]: 400 pM

B3: 248982-13-2-A9 (antibody, V domains shown)
VH: QVQLVQSGGGLVQPGRSLRLSCAASGFTFDDYAMHWVRQAPGKGLEWVSGISWNSGRVGYADSVKGRFTISRDNAKNSLYLQMNSLRAEDTALYYCTKGRDAFDIWGQGTMVTVSS
VL: DIVMTQSPSSVSASVGDRVTITCRASQGISSWLAWYQQKPGKAPKLLIYAASSLQSGVPSRFSGSGSGTDFTLTISSLQPEDFATYYCQQANSFPYTFGQGTKLEIK
IC50 [7]: 54 pM | Kd [9]: 2870 pM

More lines, now with the values ahead:

IC50 [1]: 2200 pM | Kd [2]: 1170 pM | Kd [3]: 963 pM | HepG2/Stat3 Luciferase activity IC50 [4]: 854 pM | XG-1 cell proliferation Inhibition IC50 [4]: 1500 pM | Kd [5]: 1790 pM | Kd [6]: 1960 pM
Molecule: humanized monoclonal antibody to human IL-6R (U.S. Patent No. 5,817,790 SEQ ID NO:69 and 71)

HepG2/STAT3 luciferase assay IC50 [16]: 249 pM | Kd [23]: 53 pM | kon [23]: 881000 M⁻¹ s⁻¹ | koff [24]: 4.7e-05 s⁻¹
B4: VQ8F11-21 modhIgG4 (antibody, V domains shown)
VH: B3 VH with Q1E, Q6E, G26R, V58I, K76E, Y80F, S85G, T97A, A102S
VL: B3 VL with V3Q, A50G, Q55E, T85S
notes: Modified human IgG4 constant region; also called VQ8F11-21 modified human IgG4

Kd [10]: 9 pM | fold difference of KD, monkey against human receptor [25]: 3 fold | Kd [11]: 67 pM | IC50 [7]: 8 pM | koff [12]: 5.27e-05 s⁻¹ | kon [12]: 786000 M⁻¹ s⁻¹ | % reduction of binding by control antibody [13]: 96% | Kd [14]: 51 pM | koff [14]: 4.38e-05 s⁻¹ | kon [14]: 851000 M⁻¹ s⁻¹ | Kd [15]: 143 pM | koff [15]: 4.86e-05 s⁻¹ | kon [15]: 339000 M⁻¹ s⁻¹ | HepG2/STAT3 luciferase assay IC50 [16]: 135 pM | hIL6/hIL6R Binding Inhibition (%) [17]: 98% | Kd [26]: 67 pM | % reduction of binding by control antibody [18]: 79% | IC50 [20]: 120 pM | Kd [21]: 23 pM | HepG2/Stat3 Luciferase activity IC50 [22]: 135 pM | XG-1 cell proliferation Inhibition IC50 [22]: 620 pM
B5: VQ8F11-21 (antibody, V domains shown)
VH: B3 VH with Q1E, Q6E, G26R, V58I, K76E, Y80F, S85G, T97A, A102S
VL: B3 VL with V3Q, A50G, Q55E, T85S
notes: Human variable regions with mouse constant region; also called VQ8F11-21 mIgG2a

Kd [10]: 32 pM | Kd [11]: 97 pM | IC50 [7]: 5 pM | Kd [12]: 97 pM | koff [12]: 7.52e-05 s⁻¹ | kon [12]: 772000 M⁻¹ s⁻¹ | % reduction of binding by control antibody [13]: 96% | Kd [14]: 162 pM | koff [14]: 8.41e-05 s⁻¹ | kon [14]: 518000 M⁻¹ s⁻¹ | Kd [15]: 154 pM | koff [15]: 7.7e-05 s⁻¹ | kon [15]: 500000 M⁻¹ s⁻¹ | HepG2/STAT3 luciferase assay IC50 [16]: 188 pM | hIL6/hIL6R Binding Inhibition (%) [17]: 100% | % reduction of binding by control antibody [18]: 84% | IC50 [20]: 350 pM | Kd [21]: 146 pM | HepG2/Stat3 Luciferase activity IC50 [22]: 188 pM | XG-1 cell proliferation Inhibition IC50 [22]: 1100 pM
B6: VV6A9-5 (antibody, V domains shown)
VH: B3 VH with Q1E, Q6E, M34L, I51V, S55G, V58I, Y80F, A88V, T97A, M111L
VL: B3 VL with V3Q, Q90H, N92Y
notes: Human variable regions with mouse constant region; also called VV6A9-5 mIgG2a
